Data reported in publication PMC4510971 (2015).

B1: UBN1(92–175) [human] / H3.3/H4 [human | X. laevis] (parent complex)
chain 1: NDEEKERHKVEALARKFEEKYGGKKRRKDRIQDLIDMGYGYDESDSFIDNSEAYDELVPASLTTKYGGFYINSGTLQFRQASES
chain 2: not shown
chain 3: not shown

Variants of: B1
Test: fluorescence polarization competition binding; 10 nM FITC-UBN1(127–148), 6.5 μM H3.3/H4; 20 mM HEPES pH 7.5, 750 mM NaCl, 1 mM TCEP; parent: 1.66e+04 nM

Q: For chain 1 I35A, which IC50 is on record?
A: 13.8 µM

Q: Which IC50 does the source give for chain 1 E52A here?
A: 29.3 µM

Q: For chain 1 Q32A, which IC50 is on record?
A: 13.8 µM

Q: Which IC50 does the source give for chain 1 D36A here?
A: 21.1 µM

Q: Which IC50 does the source give for chain 1 Y39A here?
A: 14.4 µM

Q: chain 1 D33A was tested. Which IC50 did it give?
A: 19.6 µM

Q: With chain 1 A53I as the variant, how does the IC50 read?
A: 16.3 µM

Q: For chain 1 D55A, which IC50 is on record?
A: 23 µM

Q: For chain 1 G40A, which IC50 is on record?
A: 19.9 µM

Q: Which IC50 does the source give for chain 1 L34A here?
A: 15.1 µM

Q: For chain 1 L57A, which IC50 is on record?
A: 19.6 µM

Q: With chain 1 I31A as the variant, how does the IC50 read?
A: 16.9 µM

Q: How did the IC50 turn out when chain 1 E56A was run?
A: 22.9 µM

Q: With chain 1 M37A as the variant, how does the IC50 read?
A: 22.6 µM

Q: With chain 1 G38A as the variant, how does the IC50 read?
A: 67.8 µM

Q: chain 1 S46A was tested. Which IC50 did it give?
A: 16.2 µM

Q: With chain 1 Y54A as the variant, how does the IC50 read?
A: 16.4 µM
